Experimental data as given in US11155612B2, “vNAR antibody which binds VEGF for use in dogs or cats” (CENTRO DE INVESTIGACIÓN CIENTÍFICA Y DE EDUCACIÓN SUPERIOR …, priority 2017, dated 2021).
Substitutions are numbered along the chain they refer to. Names and notes keep the numbering of the source.

B1: P98Y: anti-VEGF vNAR protein, P98Y mutation in CDR3 of parental V13; corresponds to SEQ ID NO:1 (protein)
chain: ASLDQTPRTATRETGESLSINCVLTDTSHILFGTKWLWNNPGSTDWESITIGGRYAESVNNQAKSFSLQIKDLTVEDSGTYYCKAQTIGRRKNLLPRYLVNGIAAMGYSSSDYDGAGTVLTVN
modifications: Artificial sequence against VEGF, with single mutation in the CDR3 region from a parenteral vNAR sequence.
B2: R97A: anti-VEGF vNAR mutant, R97A mutation in CDR3 of parental V13 (protein)
chain: B1 chain with R97A, Y98P

Columns and labels:
[1] = tested on: human umbilical vein endothelial cells (HUVEC) expressing GFP and normal human dermal fibroblasts (NHDF); test: Angiogenesis assay (vascular tube formation, HUVEC/NHDF co-culture); type: cell-based; settings: VEGF 4 ng/ml; vNAR at eight concentrations
Experimental: In the vascular tube formation assay, a co-culture system of human umbilical vein endothelial cells (HUVEC) expressing GFP and normal human dermal fibroblasts (NHDF) was used. For cell seeding on day 0, one cryogenic vial of NHDF cells was thawed and resuspended in 12 ml of complete seeding medium. Then, 100 μl of this solution was added per well of a 96-well plate. The cells were incubated at room temperature for 1 hour. Then, 1 cryogenic vial of HUVECs was thawed and resuspended in 12 ml of complete seeding medium. HUVEC (100 μL per well) were seeded into the same plate as NHDFs. The cells were incubated at room temperature for another hour. The plate was then examined in an IncuCyte ZOOM and scanned using the “FOIL” scan type. After 24 hours, the culture medium was replaced with 150 μl of growth medium.
Forty-eight hours after seeding, the cells were treated with VEGF at 4 ng/ml and the test compounds at eight concentrations.
Serial dilutions of the compounds were prepared using assay media containing VEGF up to the final concentrations in FIG. 3. Then, 150 μl of medium containing the vNARs were added. In untreated wells, media without VEGF were added. For wells without compound, media with VEGF was added. […]
The formation of vessel tubes by fluorescently-labeled HUVECs was measured using live-cell imaging, and the effects of the vNARs on this process were assessed.

[2] = target: T1, VEGF165 (Homo sapiens, UniProt P15692); test: ELISA test recognition; type: binding; settings: ELISA plates coated with VEGF165; compared with parental V13
T1 sequence (P15692 27-191 isoform P15692-4): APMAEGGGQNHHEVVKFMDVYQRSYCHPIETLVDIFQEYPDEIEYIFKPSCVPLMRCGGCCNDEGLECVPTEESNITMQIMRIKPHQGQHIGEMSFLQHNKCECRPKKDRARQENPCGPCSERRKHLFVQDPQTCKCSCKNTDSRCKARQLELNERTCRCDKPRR
Experimental: Decreasing concentrations of each vNAR were added to measure the recognition of VEGF compared to V13, which is the parental antibody.
ELISA plates were coated with the same amount of VEGF165; then, the wells were blocked with 3% BSA, several dilutions of clones P98Y and R97A, and the parental sequence (V13) were added.

[3] = tested on: Murine Lewis lung cancer cell lines; test: VEGF inhibition in vivo, ND-GFP nude mice with Lewis lung cancer footpad implant; settings: for capillary growth around the tumor (vessel density): 27 μg vNAR i.p. twice per week, 6 doses over 18 days, vs untreated controls; for Normalized tumor weight / reduction of the tumor (weight), statistical significance: after day 18, 27 μg vNAR i.p., 6 doses; for Normalized tumor weight: n=8, PBS = 1.0 (100%); for reduction of the tumor (weight), statistical significance: vs PBS
Experimental: In vivo tests were conducted at AntiCancer, Inc. (San Diego, Calif., USA) in accordance with its protocols for handling animals approved under Assurance #A3873-1, and also approved by the Bioethics Committee of the Center for Scientific Research and Higher Education of Ensenada, Baja California (CICESE), approval number 2014/03. In order to minimize the suffering of the animals, anesthesia and analgesics were used for all surgical experiments. Animals were anesthetized by subcutaneous injection of a solution of 0.02 ml of ketamine 20 mg/kg, 15.1 mg/kg xylazine, and 0.48 mg/kg of acepromazine maleate. Animals responses during surgery were monitored to ensure adequate depth of anesthesia. The animals were observed daily and humanely sacrificed through CO2 inhalation when they met the following endpoint criteria: severe tumor burden (more than 20 mm in diameter), prostration, significant body weight loss, difficulty breathing, rotational motion, and body temperature drop. Animals were housed in a barrier facility, on a high-efficiency particulate arrestance-filtered rack under standard conditions of light/dark cycles of 12 hours. Animals were fed an autoclaved laboratory rodent diet. Eight nestin-driven GFP (ND-GFP) mice were used [Amoh Y, Yang M, Li L, Reynoso J, Bouvet M, Moossa A R, Katsuoka K, Hoffman R M. Nestin-driven green fluorescent protein transgenic nude mouse for imaging human tumor angiogenesis. Cancer Res. 2005; 65: 5352-5357], individuals from 6 to 10 weeks old were used per group. ND-GFP mice expressed GFP in nascent blood vessels. Murine Lewis lung cancer cell lines, stably transfected with red fluorescent protein (RFP) were used for implantation of foot cancer cells in the plantar pad (5×10^5 cells in 25 μl). The treatment began 3 days after implantation of cancer cells. All vNARs were administered intraperitoneally (i.p.) twice per week for a total of 6 doses over 18 days; each administration contained 27 μg of VNAR in 180 μl of PBS. After day 18, the implanted footpad of the mice in each group was imaged for GFP-expressing blood vessels. The vessel density was calculated as the total length of the blood vessels divided by the observed area. Each individual tumor was collected and, the weighed (g).

Molecule | inhibition of angiogenesis (tube length and network branching) [1] | recognition of VEGF [2] | capillary growth around the tumor (vessel density) [3] | Normalized tumor weight [3] | reduction of the tumor (weight), statistical significance [3] | reduction of the tumor (weight), statistical significance ([3]; listed as SEQ ID NO:1)
B1 | especially potent inhibitors of angiogenesis | greater recognition of VEGF than the parental | reduced capillary growth around the tumor | 0.71 | statistically significant reduction of the tumor | allows reducing the size of the tumor masses
B2 |  |  | comparable with parental v13 VNAR | 0.76 |  | 
